Source: PMC8951219

Test system: MSA-R2c (p57, major soluble antigen, IPT-domain construct) (Renibacterium salmoninarum)
Experiment: plate binding assay with immobilized protein, bound aptamer quantified by qPCR
Conditions: 20 mM Tris-HCl pH 7.4, room temperature, 1 h; wells coated with 50 uL of 2.5 uM protein, 1% BSA block; aptamer 0.0205-41 nM, heated at 95 C for 5 min; no added …

Sequence: ATGATACGGCGACCACCTAACCATTTTCACTGTTTGTTTAATATATATAGTTTTATGGTATAGCGTCGTGTAGGGAAAGA [Aptamer-4]
- Kd: 3 nM
